# Data as given in patent US20260130997A1 (BEAM THERAPEUTICS, published 2026).
# T1: mutant CD45 D1-D2 protein T266A (Homo sapiens, UniProt P08575 225-394, limits assumed)
# T1 chain: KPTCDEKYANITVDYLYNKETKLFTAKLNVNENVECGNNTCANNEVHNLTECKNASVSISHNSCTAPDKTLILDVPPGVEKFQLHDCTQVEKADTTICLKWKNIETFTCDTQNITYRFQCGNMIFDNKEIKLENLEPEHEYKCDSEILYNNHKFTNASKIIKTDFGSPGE
# T2: mutant CD45 D1-D2 protein N257G (Homo sapiens, UniProt P08575 225-394, limits assumed)
# T2 chain: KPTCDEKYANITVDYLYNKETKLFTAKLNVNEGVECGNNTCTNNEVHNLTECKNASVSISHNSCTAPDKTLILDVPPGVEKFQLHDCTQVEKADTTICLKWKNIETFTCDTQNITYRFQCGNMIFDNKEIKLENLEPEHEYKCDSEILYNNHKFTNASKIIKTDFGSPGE
# T3: mutant CD45 D1-D2 protein T264A (Homo sapiens, UniProt P08575 225-394, limits assumed)
# T3 chain: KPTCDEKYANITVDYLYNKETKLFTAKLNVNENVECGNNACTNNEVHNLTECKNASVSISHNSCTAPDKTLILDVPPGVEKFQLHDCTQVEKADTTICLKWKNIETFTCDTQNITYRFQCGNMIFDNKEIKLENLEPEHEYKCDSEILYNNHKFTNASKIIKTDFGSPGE
# T4: mutant CD45 D1-D2 protein I283M, H285R, N286G (Homo sapiens, UniProt P08575 225-394, limits assumed)
# T4 chain: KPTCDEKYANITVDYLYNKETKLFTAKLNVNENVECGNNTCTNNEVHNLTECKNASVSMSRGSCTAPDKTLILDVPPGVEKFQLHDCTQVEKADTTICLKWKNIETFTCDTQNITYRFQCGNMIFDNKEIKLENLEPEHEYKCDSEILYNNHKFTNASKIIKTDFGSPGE
# T5: mutant CD45 D1-D2 protein I283M, H285R (Homo sapiens, UniProt P08575 225-394, limits assumed)
# T5 chain: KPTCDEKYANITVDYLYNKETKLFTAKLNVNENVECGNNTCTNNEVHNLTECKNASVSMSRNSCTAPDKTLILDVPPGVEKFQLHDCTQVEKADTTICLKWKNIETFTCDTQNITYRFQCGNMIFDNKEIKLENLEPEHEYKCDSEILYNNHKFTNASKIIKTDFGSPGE
# T6: mutant CD45 D1-D2 protein N286G (Homo sapiens, UniProt P08575 225-394, limits assumed)
# T6 chain: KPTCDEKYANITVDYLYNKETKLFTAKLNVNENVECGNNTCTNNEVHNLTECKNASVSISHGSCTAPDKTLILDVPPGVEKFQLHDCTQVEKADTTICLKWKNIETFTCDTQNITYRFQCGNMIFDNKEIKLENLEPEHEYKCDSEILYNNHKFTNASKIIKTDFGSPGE
# T7: mutant CD45 D1-D2 protein N267G, N268G (Homo sapiens, UniProt P08575 225-394, limits assumed)
# T7 chain: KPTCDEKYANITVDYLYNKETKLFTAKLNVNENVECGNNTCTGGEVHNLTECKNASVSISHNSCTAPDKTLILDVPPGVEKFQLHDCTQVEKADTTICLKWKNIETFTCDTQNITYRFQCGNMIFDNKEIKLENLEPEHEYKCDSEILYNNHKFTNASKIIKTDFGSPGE
# T8: mutant CD45 D1-D2 protein N263S, T264A, T266A (Homo sapiens, UniProt P08575 225-394, limits assumed)
# T8 chain: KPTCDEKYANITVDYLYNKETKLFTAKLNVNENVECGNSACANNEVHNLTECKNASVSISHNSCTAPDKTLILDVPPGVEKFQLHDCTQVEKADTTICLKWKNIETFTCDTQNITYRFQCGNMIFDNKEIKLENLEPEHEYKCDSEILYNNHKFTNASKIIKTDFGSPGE
# T9: mutant CD45 D1-D2 protein E259G (Homo sapiens, UniProt P08575 225-394, limits assumed)
# T9 chain: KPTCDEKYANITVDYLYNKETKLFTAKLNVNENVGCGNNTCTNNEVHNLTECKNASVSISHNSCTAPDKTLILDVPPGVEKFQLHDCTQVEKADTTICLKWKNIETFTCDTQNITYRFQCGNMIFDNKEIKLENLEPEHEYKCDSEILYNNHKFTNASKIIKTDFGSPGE
# T10: mutant CD45 D1-D2 protein N263G, T264A (Homo sapiens, UniProt P08575 225-394, limits assumed)
# T10 chain: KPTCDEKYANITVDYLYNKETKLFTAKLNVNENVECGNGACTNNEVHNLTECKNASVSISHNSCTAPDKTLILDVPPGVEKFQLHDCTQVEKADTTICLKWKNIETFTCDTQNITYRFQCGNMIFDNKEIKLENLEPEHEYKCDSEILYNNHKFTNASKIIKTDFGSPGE
# B1: mAb U139AGL030-9 (mAb030-9) (antibody, mouse IgG1, kappa, V domains shown)
# VH: EVKLLESGGGLVQPGGSLKLSCAASGFDFSRYWMSWVRQAPGKGLEWIGEINPTSSTINFTPSLKDKVFISRDNAKNTLYLQMSKVRSEDTALYYCARGNYYRYGDAMDYWGQGTSVTVSS
# VL: DIALTQSPASLAVSLGQRATISCRASKSVSTSGYSYLHWYQQKPGQPPKLLIYLASNLESGVPARFSGSGSGTDFTLNIHPVEEEDAATYYCQHSRELPFTFGSGTKLEIKR
# notes: In the biosensor assay the antibody was captured with Anti-Human IgG Fc Capture (AHC); also called mAb30-9; mAb039-9
# Key:
# Assay in all cases: binding to mutant CD45 D1-D2 protein relative to WT CD45 D1-D2; method not given
# [1] = biological target: T1, mutant CD45 D1-D2 protein T266A
# [2] = biological target: T2, mutant CD45 D1-D2 protein N257G
# [3] = biological target: T3, mutant CD45 D1-D2 protein T264A
# [4] = biological target: T4, mutant CD45 D1-D2 protein I283M, H285R, …
# [5] = biological target: T5, mutant CD45 D1-D2 protein I283M, H285R
# [6] = biological target: T6, mutant CD45 D1-D2 protein N286G
# [7] = biological target: T7, mutant CD45 D1-D2 protein N267G, N268G
# [8] = biological target: T8, mutant CD45 D1-D2 protein N263S, T264A, …
# [9] = biological target: T9, mutant CD45 D1-D2 protein E259G
# [10] = biological target: T10, mutant CD45 D1-D2 protein N263G, T264A
binder,measurement,setting,value
B1,% Mutant Binding,[1],73.4%
same,% Mutant Binding,[2],1.7%
same,% Mutant Binding,[3],112%
same,% Mutant Binding,[4],0.7%
same,% Mutant Binding,[5],1%
same,% Mutant Binding,[6],81.5%
same,% Mutant Binding,[7],1.3%
same,% Mutant Binding,[8],69.3%
same,% Mutant Binding,[9],2.7%
same,% Mutant Binding,[10],106%
